Reference: patent US20070014736A1, “Methods of delivering corticotroph-derived glycoprotein hormone” (priority 2005, published 2007)

What was measured:
NCI-H295R = assay: CRE-luciferase reporter assay in NCI-H295R adrenal cortex cells; assay type: cell-based, human
Excerpt: Summary: A human adrenal cortex cell line, NCI-H295R, was used to study signal transduction of CGH. NCI-H295R was transduced with recombinant adenovirus containing a reporter construct, a firefly luciferase gene under the control of cAMP response element (CRE) enhancer sequences. This assay system detects cAMP-mediated gene induction downstream of activation of Gs-coupled GPCR's (G-protein coupled receptors). […] Typically, CGH elicited a maximal response of 15-40-fold luciferase induction above control media.
NCI-H295R cells were obtained from the ATCC (CRL-2128, Manassas, Va.) and cultured in growth medium as follows: 1:1 mixture of Dulbecco's modified Eagle's medium and Ham's F12 medium with L-glutamine (D-MEM/F-12; GIBCO, cat.#11320-033) containing 25 mM HEPES buffer (GIBCO, Invitrogen, Carlsbad, Calif., cat.#15630-080), 1 mM sodium pyruvate (GIBCO, cat.#11360-070), 1% ITS+1 media supplement (Sigma St. Louis, Mo. cat#I2521) and 2.5% Nu-Se I (BD Biosciences, Lexington, Ky. cat.#355100). Cells were cultured at 37° C. in a 5% CO2 humidified incubator. […]
Promega's Luciferase Assay System (Promega, Madison, Wis., cat. #E1500) was used to process the treated cells. […] Luciferase activity was measured on a microplate luminometer (PerkinElmer Life Sciences, Inc., model LB 96V2R) following automated injection of luciferase assay substrate.

adrenal glands = assay: Intraperitoneal recombinant CGH for two weeks, adrenal weight; assay type: in vivo, mice; details: 0.25 mg/kg CGH i.p. daily, day 15, female C57BL/6
Excerpt: Summary: Mice were exposed to CGH through infection with adenovirus particles expressing GPHA2 and GPHB5, leading to overexpression and secretion of CGH from the liver of these animals. […] The hypertrophy was apparent in the inner cortical layers, the zona fasciculata and the zona reticularis. Similarly, mice were exposed to CGH through intraperitoneal injection of recombinant CGH protein alone, recombinant CGH protein along with the glucocorticoid Dexamethasone (Dex), Dex alone, or PBS alone daily for two weeks.
Sixteen C57BL/6 female mice at 8 weeks of age were separated into four groups. The first group received daily injections of 0.25 mg/kg of recombinant CGH protein intraperitoneally. The second group received daily injections of PBS using the same procedure. The third group received daily injections of 0.25 mg/kg of CGH plus 0.05 mg/kg Dex and the final group received 0.5 mg/kg Dex, alone. Animals were sacrificed on day 15 and the adrenal glands were isolated and weighed. Example 5 describes the expression and purification of recombinant CGH protein used in this experiment.

lipolysis in mice = assay: Stimulation of lipolysis in vivo, serum glycerol and FFA; details: fasted mice, IP; CGH 300 μg/kg, CL 1 mg/kg
Protocol: CGH, the β3-adrenoreceptor agonist CL 316,243 (CL), and saline vehicle were examined for stimulation of lipolysis in mice following an overnight fast. […] Lipolysis was assessed as the percent change in serum glycerol or FFA over the 2 hour period. The serum glycerol and FFA for the vehicle groups decreased by 7%±9% and 24%±15%, respectively. The serum glycerol for the CGH group increased by 57%±20%; p=0.0254, and the FFA levels increased 25%±5%; p=0.0188.
C57 BL/6 male mice, age 19 weeks, were grouped to normalize weight (n=4 for each treatment; average group weight=37.8 g±0.4 g). Mice were housed individually for 18 hours prior to treatment, at which time food was withdrawn, with free access to water given. At approximately 8 a.m., the subjects were anesthetized with halothane and blood samples taken by retro-orbital eye bleed. The blood was allowed to clot, and the serum was separated by centrifugation and frozen for later analysis. Test substances were administered by IP injection in a volume of 0.1 ml, and the animals replaced in their cages for 2 hours with free access to water. At 2 hours, the mice were sacrificed and blood drawn by cardiac puncture.
For measuring free fatty acids in serum, the method previously described for measuring free fatty acids in conditioned media was followed, with the following modifications. Wako reagents A and B were reconstituted to 2× the recommended concentration. 75 μl of Wako reagent A were added to 5 μl of oleic acid standard plus 5 μl of water. 75 μl of Wako reagent A were added to 5 μl of serum plus 5 μl of methanol (to mirror the oleic acid standard conditions). The 96-well plates were incubated at 37° C. for 10 minutes. 150 μl of Wako reagent B were added to each well. The 96-well plates were incubated at 37° C. for 10 minutes. The 96-well plates were allowed to sit at room temperature for 5 minutes. The 96-well plates were centrifuged in a Beckman Coulter Allegra 6R centrifuge at 3250×g for 5 minutes to remove air bubbles. The absorbance at 530 nm was measured on the Wallac Victor2 Multilabel counter.
For measuring glycerol in serum, the method previously described for measuring glycerol in conditioned media was followed, with the modifications described below.
Sigma reagent A was reconstituted to 0.5× the recommended concentration. 200 μl of Sigma reagent A were added to 10 μl of glycerol standard. 200 μl of Sigma reagent A were added to 5 μl of serum plus 5 μI of water. The 96-well plates were incubated for 15 minutes at room temperature. The 96-well plates were centrifuged in a Beckman Coulter Allegra 6R centrifuge at 3250×g for 5 minutes to remove air bubbles. The absorbance at 530 nm was measured on the Wallac Victor2 Multilabel counter.

B1: CGH: heterodimeric protein hormone comprised of alpha subunit GPHA2 and beta subunit GPHB5, recombinantly produced in CHO cells (protein)
chain 1: QEAVIPGCHLHPFNVTVRSDRQGTCQGSHVAQACVGHCESSAFPSRYSVLVASGYRHNITSVSQCCTISGLKKVKVQLQCVGSRREELEIFTARACQCDMCRLSRY
chain 2: ASSGNLRTFVGCAVREFTFLAKKPGCRGLRITTDACWGRCETWEKPILEPPYIEAHHRVCTYNETKQVTVKLPNCAPGVDPFYTYPVAIRCDCGACSTATTECETI
maximal response, luciferase induction above control media (NCI-H295R; CRE-luciferase, 4 h): 15-40 fold
induction of luciferase activity compared with 10 μM forskolin (NCI-H295R; dose-dependent): equal to or higher than that induced by 10 μM forskolin
Average adrenal weight/100 g body weight (adrenal glands): 22.26 +/− 0.99
percent change (increase) in serum FFA over 2 hours (lipolysis in mice): 25%±5%
percent change (increase) in serum glycerol over 2 hours (lipolysis in mice): 57%±20%
